In IntAct's records for PubMed 29039417:

B1: Protein PTHB1 (Homo sapiens), Q3SYG4 (parent)
chain: MSLFKARDWWSTILGDKEEFDQGCLCLANVDNSGNGQDKIIVGSFMGYLRIFSPHPAKTGDGAQAEDLLLEVDLRDPVLQVEVGKFVSGTEMLHLAVLHSRKLCVYSVSGTLGNVEHGNQCQMKLMYEHNLQRTACNMTYGSFGGVKGRDLICIQSMDGMLMVFEQESYAFGRFLPGFLLPGPLAYSSRTDSFLTVSSCQQVESYKYQVLAFATDADKRQETEQQKLGSGKRLVVDWTLNIGEQALDICIVSFNQSASSVFVLGERNFFCLKDNGQIRFMKKLDWSPSCFLPYCSVSEGTINTLIGNHNNMLHIYQDVTLKWATQLPHIPVAVRVGCLHDLKGVIVTLSDDGHLQCSYLGTDPSLFQAPNVQSRELNYDELDVEMKELQKIIKDVNKSQGVWPMTEREDDLNVSVVVSPNFDSVSQATDVEVGTDLVPSVTVKVTLQNRVILQKAKLSVYVQPPLELTCDQFTFEFMTPDLTRTVSFSVYLKRSYTPSELEGNAVVSYSRPTDRNPDGIPRVIQCKFRLPLKLICLPGQPSKTASHKITIDTNKSPVSLLSLFPGFASQSDDDQVNVMGFHFLGGARITVLASKTSQRYRIQSEQFEDLWLITNELILRLQEYFEKQGVKDFACSFSGSIPLQEYFELIDHHFELRINGEKLEELLSERAVQFRAIQRRLLARFKDKTPAPLQHLDTLLDGTYKQVIALADAVEENQGNLFQSFTRLKSATHLVILLIALWQKLSADQVAILEAAFLPLQEDTQELGWEETVDAAISHLLKTCLSKSSKEQALNLNSQLNIPKDTSQLKKHITLLCDRLSKGGRLCLSTDAAAPQTMVMPGGCTTIPESDLEERSVEQDSTELFTNHRHLTAETPRPEVSPLQGVSE
partner: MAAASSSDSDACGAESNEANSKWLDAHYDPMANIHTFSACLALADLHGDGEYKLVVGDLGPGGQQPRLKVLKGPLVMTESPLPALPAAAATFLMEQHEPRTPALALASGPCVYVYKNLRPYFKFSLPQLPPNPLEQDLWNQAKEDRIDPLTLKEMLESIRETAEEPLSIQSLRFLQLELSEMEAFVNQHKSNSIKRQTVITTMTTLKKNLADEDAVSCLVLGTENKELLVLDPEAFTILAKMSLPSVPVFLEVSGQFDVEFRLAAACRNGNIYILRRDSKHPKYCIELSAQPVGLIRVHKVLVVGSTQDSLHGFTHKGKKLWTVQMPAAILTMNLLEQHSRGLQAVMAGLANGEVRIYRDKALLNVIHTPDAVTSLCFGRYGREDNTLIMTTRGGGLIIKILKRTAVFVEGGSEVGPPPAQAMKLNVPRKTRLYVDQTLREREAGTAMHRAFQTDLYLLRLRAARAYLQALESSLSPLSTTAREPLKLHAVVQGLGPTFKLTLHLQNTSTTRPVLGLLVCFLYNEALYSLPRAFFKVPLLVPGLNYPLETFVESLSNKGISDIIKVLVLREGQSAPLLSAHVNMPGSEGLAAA
B2: Protein PTHB1 (Homo sapiens), Q3SYG4 (parent)
chain: B1 chain
partner: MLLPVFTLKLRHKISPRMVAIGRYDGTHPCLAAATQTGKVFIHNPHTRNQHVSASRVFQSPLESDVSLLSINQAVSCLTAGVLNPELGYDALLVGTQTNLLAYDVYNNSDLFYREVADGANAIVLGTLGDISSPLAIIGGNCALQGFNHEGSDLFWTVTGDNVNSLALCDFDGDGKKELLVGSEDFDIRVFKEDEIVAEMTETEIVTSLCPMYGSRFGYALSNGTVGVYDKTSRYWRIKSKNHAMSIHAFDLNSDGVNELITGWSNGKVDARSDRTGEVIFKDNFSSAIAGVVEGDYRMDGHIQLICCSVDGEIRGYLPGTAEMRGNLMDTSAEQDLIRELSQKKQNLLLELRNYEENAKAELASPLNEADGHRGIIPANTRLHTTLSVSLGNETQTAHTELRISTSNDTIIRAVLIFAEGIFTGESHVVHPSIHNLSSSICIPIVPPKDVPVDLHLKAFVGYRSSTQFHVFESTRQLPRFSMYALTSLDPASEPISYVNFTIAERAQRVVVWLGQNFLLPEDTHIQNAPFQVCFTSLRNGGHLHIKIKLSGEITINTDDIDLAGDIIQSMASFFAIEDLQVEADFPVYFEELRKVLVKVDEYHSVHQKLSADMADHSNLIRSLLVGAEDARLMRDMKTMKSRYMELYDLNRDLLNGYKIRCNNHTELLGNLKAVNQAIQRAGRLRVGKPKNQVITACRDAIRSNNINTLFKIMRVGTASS

Variants of: B1
Settings: with bbs1_human BBS1, Q8NFJ9

| Variant | effect of a mutation on the interaction |
| --- | --- |
| S414K | with no effect |
| P419E | with no effect |
| E408A | with no effect |
| V417K | with no effect |

Other lines, results leading:

| effect of a mutation on the interaction | Variant |
| --- | --- |
| with no effect | Q605A |
| with no effect | V575K |
| disrupting interaction strength | S570L |
| with no effect | Q597A |
| with no effect | T813A |
| with no effect | N576A |
| with no effect | C843K |
| with no effect | L665K |
| with no effect | A633K |
| with no effect | L882A |
| with no effect | T482K |
| with no effect | N614K |
| with no effect | F756A |
| with no effect | L744E |
| with no effect | S729A |
| with no effect | P479K |
| with no effect | P479E |
| with no effect | H581A |
| with no effect | R726A |
| with no effect | K492A |
| disrupting interaction strength | A754G |
| with no effect | G842K |
| with no effect | L692K |
| with no effect | T552K |
| with no effect | G822K |
| with no effect | N716K |

| effect of a mutation on the interaction | Variant |
| --- | --- |
| with no effect | N716A |
| with no effect | R521A |
| with no effect | K554E |
| with no effect | K547E |
| with no effect | L759A |
| with no effect | T441A |
| with no effect | T441E |
| with no effect | V444E |
| with no effect | R876K |
| with no effect | R876E |
| with no effect | I657E |
| with no effect | S439K |
| with no effect | K781E |
| with no effect | C783K |
| with no effect | T836E |
| disrupting interaction strength | I738A |
| with no effect | V522A |
| with no effect | A833E |
| disrupting interaction strength | C634S |
| disrupting interaction strength | D747K |
| with no effect | D572K |
| with no effect | I451E |
| with no effect | V734E |
| with no effect | V671E |
| with no effect | I550K |
| with no effect | P556E |

| effect of a mutation on the interaction | Variant |
| --- | --- |
| with no effect | V590E |
| with no effect | L766K |
| with no effect | N796E |
| with no effect | A586E |
| with no effect | L814E |
| with no effect | S667A |
| with no effect | Q643A |
| with no effect | Y460K |
| with no effect | S639A |
| with no effect | V461A |
| with no effect | I640A |
| with no effect | I523E |
| with no effect | L611E |
| with no effect | L680A |
| with no effect | G841K |
| with no effect | A592K |
| disrupting interaction strength | A592V |
| with no effect | L709E |
| with no effect | D700K |
| with no effect | E499K |
| with no effect | L465E |
| with no effect | L740A |
| with no effect | V437K |
| with no effect | G502E |
| with no effect | K821A |

Variants of: B2
Settings: with bbs2_human BBS2, Q9BXC9

| Variant | effect of a mutation on the interaction |
| --- | --- |
| V430A | with no effect |
| V430E | with no effect |
| V430K | with no effect |
| F421K | with no effect |
| F421A | with no effect |
| F421E | with no effect |
| V432E | with no effect |
| V432A | with no effect |
| V432K | with no effect |
| D410A | with no effect |
| D410K | with no effect |
| D410E | with no effect |
| A427K | with no effect |
| A427E | with no effect |
| G433A | with no effect |
| G433E | with no effect |
| G433K | with no effect |
| V413E | with no effect |
| V413K | with no effect |
| V413A | with no effect |
| P419K | with no effect |
| P419E | with no effect |
| P419A | with no effect |

| Variant | effect of a mutation on the interaction |
| --- | --- |
| N420K | with no effect |
| N420E | with no effect |
| N420A | with no effect |
| T434K | with no effect |
| T434A | with no effect |
| T434E | with no effect |
| D409K | with no effect |
| D409E | with no effect |
| D409A | with no effect |
| S414E | with no effect |
| S414K | with no effect |
| S414A | with no effect |
| D435A | with no effect |
| D435K | with no effect |
| D435E | with no effect |
| S423K | with no effect |
| S423A | with no effect |
| S423E | with no effect |
| Q426A | with no effect |
| Q426K | with no effect |
| Q426E | with no effect |
| L411A | with no effect |
| L411K | with no effect |

| Variant | effect of a mutation on the interaction |
| --- | --- |
| L411E | with no effect |
| R407E | with no effect |
| R407A | with no effect |
| R407K | with no effect |
| E406K | with no effect |
| E406A | with no effect |
| E408K | with no effect |
| E408A | with no effect |
| S418E | with no effect |
| S418A | with no effect |
| S418K | with no effect |
| N412E | with no effect |
| N412K | with no effect |
| N412A | with no effect |
| L436A | with no effect |
| V417E | with no effect |
| V417K | with no effect |
| V417A | with no effect |
| V416E | with no effect |
| V416A | with no effect |
| V416K | with no effect |
| D429E | with no effect |
| D429K | with no effect |

| Variant | effect of a mutation on the interaction |
| --- | --- |
| D429A | with no effect |
| V415A | with no effect |
| V415E | with no effect |
| V415K | with no effect |
| E431K | with no effect |
| E431A | with no effect |
| D422K | with no effect |
| D422E | with no effect |
| D422A | with no effect |
| V424E | with no effect |
| V424K | with no effect |
| V424A | with no effect |
| T428K | with no effect |
| T428E | with no effect |
| T428A | with no effect |
| T405K | with no effect |
| T405E | with no effect |
| T405A | with no effect |
| S425K | with no effect |
| S425A | with no effect |
| S425E | with no effect |

Second part, the variant after the results:

| effect of a mutation on the interaction | Variant |
| --- | --- |
| with no effect | L436E |
| with no effect | L436K |
| with no effect | V440K |
| with no effect | V440A |
| with no effect | V440E |
| with no effect | S439A |
| with no effect | S439E |
| with no effect | S439K |
| with no effect | P438E |
| with no effect | P438K |
| with no effect | P438A |
| with no effect | V437K |
| with no effect | V437A |
| with no effect | V437E |
